Measured values published in patent publication US20140163217A1, “PROCESS FOR THE ESTERIFICATION OF HYALURONIC ACID WITH HYDROPHOBIC ORGANIC COMPOUNDS” (UNIVERSITE DE GENEVE, priority 2010, published 2014).

Experiments:
Assay type in all cases: physicochemical
[1] = Solubility of the product in water; conditions: product of small scale reaction (0.5 g), 2% diacerhein functionalization
Experimental: 0.044 g Diacerhein were suspended into 20 mL dry THF, followed by addition of 0.022 g CDI dissolved in 2 mL THF. The reaction mixture was stirred for 1 hour at room temperature until a clear solution was obtained. 0.5 g cryo-micronized HA powder were added and the suspension stirred at 70° C. for 24 hours. The reaction mixture was then filtered through a G4-fritte and washed with 150 mL dry THF. The non-soluble remaining HA product was slightly yellowish. By redissolving the product in water small amounts of remaining dispersed diacerhein could be removed by centrifugation to yield a visually clear and transparent aqueous solution.
The obtained product was analyzed by H^1-NMR-, HPLC-, UV- and LC-MS/MS-analyses, and the following results were obtained. The reaction resulted a 100% yield of HA-polymer, close to its original molecular weight with a 2% diacerhein-fimctionalization. No significant degradation of HA in the final product could be observed. […] For further qualitative characterization the HA-diacerhein product was enzymatically hydrolysed, which lead to HA-fragments (oligomers) with and without diacerhein, which could be analysed by HPLC analysis. Furthermore HA-fragments with and without diacerhein attached were identified by LC-MS/MS.

[2] = Solution appearance of a 1% (weight/weight) solution in MilliQ water; conditions: approx. 10 mg freeze-dried compound in 1 ml MilliQ water, after storage or centrifugation at 14'000 rpm for 10 min
Experimental: A 1% (weight/weight) solution was obtained by dissolving approximately 10 mg of freeze-dried compound into 1 ml of pure MilliQ water.

[3] = pH determination of the 1% solution; conditions: 1% (weight/weight) solution in MilliQ water; Metrohm 691 pH-Meter, Biotrode glass electrode
Experimental: pH of the above described 1% solution was determined to be 5.5 (Metrohm 691 ph-Meter operated with a Biotrode glass electrode; according to specifications received for the initial hyaluronic acid provided by TRB, pH of a 0.5% solution should be between 5.0 and 8.5).

HA-Diacerhein [Example 1]
solubility in water [1]: soluble in water

HA-Diacerhein [Example 2]
solution appearance / precipitation [2]: no precipitation occurred
pH of 1% solution [3]: 5.5
